Test results reported in article PMC5063806, “Data for peptide-binding assay with oriented immobilization of GRP78 in Biacore” (Data in Brief, 2016).

Target: T1, human GRP78, N-His-tagged (human, UniProt P11021 19-654)
T1 construct: GRP78, human; 6-His tag at the N-terminus; also called N-His-tagged GRP78; not shown: His6, N-terminal, kept
Assay: SPR; modified protocol, Biacore X: N-His-tagged GRP78 covalently immobilised (EDC/NHS, Ni2+ orientation, about 5000~6000 RU) on chip NTA; running buffer HBS-P pH 7.4 with 1 mM glycine; L-peptide 6.25-100 uM; both peptides at 50 uM in Fig. 3; fit with BIAevaluation 4.1, default settings
Conditions: both partners purified

T1 sequence (P11021 19-654): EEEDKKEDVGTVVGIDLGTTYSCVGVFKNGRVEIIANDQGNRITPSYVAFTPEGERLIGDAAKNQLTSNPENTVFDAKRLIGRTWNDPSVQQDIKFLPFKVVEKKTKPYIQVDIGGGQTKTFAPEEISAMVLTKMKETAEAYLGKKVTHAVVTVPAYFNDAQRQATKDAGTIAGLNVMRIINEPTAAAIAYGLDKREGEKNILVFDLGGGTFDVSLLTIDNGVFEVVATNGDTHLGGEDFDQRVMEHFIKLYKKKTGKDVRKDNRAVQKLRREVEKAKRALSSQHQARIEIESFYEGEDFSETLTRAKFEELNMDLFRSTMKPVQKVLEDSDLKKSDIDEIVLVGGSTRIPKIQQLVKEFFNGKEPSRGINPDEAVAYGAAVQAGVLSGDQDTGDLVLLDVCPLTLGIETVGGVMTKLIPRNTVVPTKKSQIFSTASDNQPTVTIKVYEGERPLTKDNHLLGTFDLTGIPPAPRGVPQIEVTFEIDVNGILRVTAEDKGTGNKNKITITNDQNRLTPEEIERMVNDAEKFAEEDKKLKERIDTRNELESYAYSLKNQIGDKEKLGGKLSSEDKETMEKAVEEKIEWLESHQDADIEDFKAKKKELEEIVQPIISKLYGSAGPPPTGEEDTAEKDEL

B1: L-peptide (RLLDTNRPLLPY) (peptide)
peptide: RLLDTNRPLLPY
notes: Probably synthetic
  Kd: ~10 µM
